This is an account of results in patent US20240158512A1 (TRUEBINDING, published 2024).

The target of this assay is T1, Galectin-3 (UniProt P17931 1-250, limits assumed).
T1 construct: Target of the anti-Gal3 antibody TB006; also called Gal3; GAL3
The assay is described as follows: BLI; Time 0 (control).

T1 sequence (P17931 whole entry): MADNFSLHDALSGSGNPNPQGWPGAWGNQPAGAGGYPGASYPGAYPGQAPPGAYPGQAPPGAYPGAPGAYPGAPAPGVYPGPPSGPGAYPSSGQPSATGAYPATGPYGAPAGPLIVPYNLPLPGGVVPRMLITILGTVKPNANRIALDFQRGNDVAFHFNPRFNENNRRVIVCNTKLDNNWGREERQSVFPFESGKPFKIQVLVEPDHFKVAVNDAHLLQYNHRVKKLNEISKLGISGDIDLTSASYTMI

B1: TB006 (antibody, human IgG4 S228P, kappa, V domains shown)
VH: QVQLVQSGAEVKKPGASVKVSCKASGYSFTNYYMHWVRQAPGQRLEWMGWIYPGSGNTNYNEKFQGRVTITADTSASTAYMELSSLRSEDTAVYYCSTAPGGFDVWGQGTTVTVSS
VL: DIVMTQTPLSLSVTPGQPASISCKSSKSLLHSDGITYLYWYLQKPGQSPQLLIYRMSNLASGVPDRFSGSGSGTDFTLKISRVEAEDVGVYYCAQMLEFPLTFGQGTKLEIKR
notes: Tested as formulated drug substance or drug product in 20 mM L-histidine, 5 mM methionine, 100 mM NaCl, 0.02% polysorbate 80, pH 5.8, or diluted in 0.9% saline; also called 4A11.H3L1; IMT006a
Turning to B1, the Kd stood at 2.8 nM.
